What follows are compounds tested on Cc1cc(=O)oc2c(F)c(OP(=O)(O)O)c(F)cc12 (assay: purified protein). Conditions: 60°C (active form II), pH 5.0 sodium citrate, 200 mM NaCl, 5 mM dithiothreitol.
Compound “Tk-PTP (Thermococcus kodakarensis KOD1; E132A)” has a Km of 23 ± 8.4 µM and a kcat of 3.83 ± 0.14 s⁻¹. “Tk-PTP (Thermococcus kodakarensis KOD1; Q136A)” showed a Km of 135 ± 16 µM and a kcat of 0.460 ± 0.015 s⁻¹. With “Tk-PTP (Thermococcus kodakarensis KOD1; R124A)” the Km was 301 ± 109 µM and the kcat was 1.59 ± 0.65 s⁻¹. “Tk-PTP (Thermococcus kodakarensis KOD1; D63A)” gave a Km of 27.4 ± 10.6 µM and a kcat of 1.29 ± 0.047 s⁻¹. “Tk-PTP (Thermococcus kodakarensis KOD1; G95A)” was tested, and the Km was 106 ± 10 µM and the kcat was 35.8 ± 0.7 s⁻¹. In the case of “Tk-PTP (Thermococcus kodakarensis KOD1; D63N)”, the Km is reported as 252 ± 50 µM and the kcat is reported as 2.92 ± 0.15 s⁻¹. Work on “Tk-PTP (Thermococcus kodakarensis KOD1; E132Q)” yielded a Km of 150 ± 62 µM and a kcat of 8.82 ± 0.13 s⁻¹. For Tk-PTP (Thermococcus kodakarensis KOD1), the Km was 276 µM and the kcat was 30.0 s⁻¹. Work on “Tk-PTP (Thermococcus kodakarensis KOD1; E132L)” yielded a Km of 251 ± 423 µM and a kcat of 2.97 ± 0.15 s⁻¹. With “Tk-PTP (Thermococcus kodakarensis KOD1; R124E)” the Km was 258 ± 43 µM and the kcat was 0.188 ± 0.052 s⁻¹.

Each compound was assayed against T1, Tk-PTP (Thermococcus kodakarensis, UniProt Q8X270) (assay: X-ray crystal structure, […] Å). Conditions: active site (P-loop); protein heated at 60°C for 3 h with sodium vanadate at 1:3 molar ratio.
T1 construct: recombinant, E. coli BL21(DE3) RIL; codon-optimized gene; wild type in pET28a, N-terminal His6-tag removed by thrombin; mutants in pET21a, Ni-NTA purified; P-loop HC93MGGLGR99
Format: binding
[O]=[V]([OH])([OH])[OH] [vanadate] was tested, and the “X-ray crystal structure, 1.8 Å” value was “Vanadate is anchored in the active site of Tk-PTP(form II)”.

— publication PMC5965843, “Structural study reveals the temperature-dependent conformational flexibility of Tk-PTP, a protein tyrosine phosphatase from Thermococcus kodakaraensis KOD1” (PLoS ONE, 2018)
